Assay results reported in publication PMC5992710.

What was measured:
[1] = molecular target: recombinant 0076 protein (ferritin encoded by mycma_0076) from Mycobacterium abscessus subsp. massiliense GO06 (Mycobacterium abscessus subsp. massiliense GO06); experiment: SEC; Superdex 200 10/300 GL, 50 mM NaH2PO4 pH 8.0, 300 mM NaCl, 1 ml/min, calibrated with molecular weight standards; apparent mass
[2] = molecular target: recombinant 0076 protein (ferritin encoded by mycma_0076) from Mycobacterium abscessus subsp. massiliense GO06 (Mycobacterium abscessus subsp. massiliense GO06); experiment: dynamic light scattering; r0076 1 mg/ml in 50 mM NaH2PO4 pH 8.0, 50 mM NaCl; RH converted to mass assuming a spherical particle; 20 to 90°C

stoichiometry N [1]: 24 subunits
stoichiometry N [2]: 24 subunits
Substance: recombinant 0076 protein (ferritin encoded by mycma_0076) from Mycobacterium abscessus subsp. massiliense GO06 (natural protein)
